Data taken from the supplement of paper PMC9112550, “Optimization of the antimicrobial peptide Bac7 by deep mutational scanning” (BMC Biology, 2022).

System: Escherichia coli TOP10
Assay: shrunken log2 fold change of peptide-encoding DNA abundance (4.5 h post-induction vs induction); higher = less antimicrobial activity (less host growth inhibition)
Details: time post-induction: 4.5 h; library: site-saturation at positions 5, 18, 19, 20
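Further: peptides expressed intracellularly from a pBAD plasmid library in pooled LB shake-flask culture, induced with 0.3% L-arabinose, DNA abundance read by NGS, three biological replicates, DESeq2 with apeglm shrinkage.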

Row | Sequence | shrunken log2 fold change
1 | RRIRVRPPRLPRPRPRPSEHPRP | -0.779
2 | RRIRVRPPRLPRPRPRPSFAPRP | 0.0593
3 | RRIRVRPPRLPRPRPRPSGGPRP | 0.104
4 | RRIRVRPPRLPRPRPRPSHHPRP | -0.448
5 | RRIRVRPPRLPRPRPRPSHPPRP | -0.852
6 | RRIRVRPPRLPRPRPRPSHQPRP | 0.0669
7 | RRIRVRPPRLPRPRPRPSIPPRP | -0.52
8 | RRIRVRPPRLPRPRPRPSIRPRP | -0.285
9 | RRIRVRPPRLPRPRPRPSKNPRP | -0.364
10 | RRIRVRPPRLPRPRPRPSKVPRP | -0.693
11 | RRIRVRPPRLPRPRPRPSLEPRP | 0.163
12 | RRIRVRPPRLPRPRPRPSLIPRP | -0.238
13 | RRIRVRPPRLPRPRPRPSLMPRP | -0.368
14 | RRIRVRPPRLPRPRPRPSNFPRP | -0.476
15 | RRIRVRPPRLPRPRPRPSPIPRP | -0.324
16 | RRIRVRPPRLPRPRPRPSQTPRP | 0.112
17 | RRIRVRPPRLPRPRPRPSQYPRP | -0.389
18 | RRIRVRPPRLPRPRPRPSREPRP | 0.0823
19 | RRIRVRPPRLPRPRPRPSRHPRP | -0.0783
20 | RRIRVRPPRLPRPRPRPSRKPRP | 0.00977
21 | RRIRVRPPRLPRPRPRPSSMPRP | -0.157
22 | RRIRVRPPRLPRPRPRPSSNPRP | -0.375
23 | RRIRVRPPRLPRPRPRPSSPPRP | -0.269
24 | RRIRVRPPRLPRPRPRPSTNPRP | -0.146
25 | RRIRVRPPRLPRPRPRPSVAPRP | 0.595

Row | Sequence | shrunken log2 fold change
26 | RRIRVRPPRLPRPRPRPSWKPRP | -0.0781
27 | RRIRVRPPRLPRPRPRPSYIPRP | -0.74
28 | RRIRVRPPRLPRPRPRPTAMPRP | 0.0686
29 | RRIRVRPPRLPRPRPRPTCNPRP | -0.233
30 | RRIRVRPPRLPRPRPRPTEYPRP | 0.0465
31 | RRIRVRPPRLPRPRPRPTFDPRP | -0.0428
32 | RRIRVRPPRLPRPRPRPTFNPRP | 0.127
33 | RRIRVRPPRLPRPRPRPTHMPRP | 0.0408
34 | RRIRVRPPRLPRPRPRPTIYPRP | -0.498
35 | RRIRVRPPRLPRPRPRPTLLPRP | -0.196
36 | RRIRVRPPRLPRPRPRPTNQPRP | 0.0229
37 | RRIRVRPPRLPRPRPRPTNYPRP | -0.519
38 | RRIRVRPPRLPRPRPRPTPGPRP | 0.258
39 | RRIRVRPPRLPRPRPRPTPLPRP | 0.251
40 | RRIRVRPPRLPRPRPRPTPPPRP | 0.406
41 | RRIRVRPPRLPRPRPRPTPWPRP | 0.294
42 | RRIRVRPPRLPRPRPRPTQCPRP | -0.0227
43 | RRIRVRPPRLPRPRPRPTQNPRP | 0.693
44 | RRIRVRPPRLPRPRPRPTSIPRP | -0.201
45 | RRIRVRPPRLPRPRPRPTVDPRP | 0.177
46 | RRIRVRPPRLPRPRPRPTWFPRP | 0.177
47 | RRIRVRPPRLPRPRPRPTWNPRP | 0.13
48 | RRIRVRPPRLPRPRPRPVDFPRP | -0.289
49 | RRIRVRPPRLPRPRPRPVDLPRP | 0.0988
50 | RRIRVRPPRLPRPRPRPVENPRP | 0.02

Row | Sequence | shrunken log2 fold change
51 | RRIRVRPPRLPRPRPRPVHLPRP | 0.0586
52 | RRIRVRPPRLPRPRPRPVHRPRP | 0.164
53 | RRIRVRPPRLPRPRPRPVILPRP | -0.248
54 | RRIRVRPPRLPRPRPRPVMAPRP | 0.0266
55 | RRIRVRPPRLPRPRPRPVMNPRP | -0.19
56 | RRIRVRPPRLPRPRPRPVNPPRP | -0.464
57 | RRIRVRPPRLPRPRPRPVPDPRP | -0.103
58 | RRIRVRPPRLPRPRPRPVPWPRP | 0.0916
59 | RRIRVRPPRLPRPRPRPVQFPRP | -0.488
60 | RRIRVRPPRLPRPRPRPVQWPRP | -0.0327
61 | RRIRVRPPRLPRPRPRPVRCPRP | 0.145
62 | RRIRVRPPRLPRPRPRPVRLPRP | 0.44
63 | RRIRVRPPRLPRPRPRPVSVPRP | 0.0195
64 | RRIRVRPPRLPRPRPRPVTYPRP | -0.288
65 | RRIRVRPPRLPRPRPRPVVYPRP | 0.0805
66 | RRIRVRPPRLPRPRPRPVWPPRP | 0.257
67 | RRIRVRPPRLPRPRPRPWACPRP | -0.191
68 | RRIRVRPPRLPRPRPRPWEHPRP | 0.0927
69 | RRIRVRPPRLPRPRPRPWELPRP | -0.487
70 | RRIRVRPPRLPRPRPRPWESPRP | 0.0528
71 | RRIRVRPPRLPRPRPRPWFFPRP | -0.148
72 | RRIRVRPPRLPRPRPRPWFGPRP | 0.0293
73 | RRIRVRPPRLPRPRPRPWFVPRP | -0.475
74 | RRIRVRPPRLPRPRPRPWGKPRP | -0.0952
75 | RRIRVRPPRLPRPRPRPWGSPRP | -0.137

Row | Sequence | shrunken log2 fold change
76 | RRIRVRPPRLPRPRPRPWIFPRP | -0.389
77 | RRIRVRPPRLPRPRPRPWIPPRP | -0.513
78 | RRIRVRPPRLPRPRPRPWISPRP | -0.0628
79 | RRIRVRPPRLPRPRPRPWLVPRP | 0.128
80 | RRIRVRPPRLPRPRPRPWNHPRP | -0.152
81 | RRIRVRPPRLPRPRPRPWPDPRP | 0.033
82 | RRIRVRPPRLPRPRPRPWPQPRP | 0.104
83 | RRIRVRPPRLPRPRPRPWRDPRP | 0.202
84 | RRIRVRPPRLPRPRPRPWRRPRP | 0.208
85 | RRIRVRPPRLPRPRPRPWRVPRP | 0.435
86 | RRIRVRPPRLPRPRPRPWSAPRP | -0.135
87 | RRIRVRPPRLPRPRPRPWTSPRP | -0.329
88 | RRIRVRPPRLPRPRPRPWVQPRP | -0.021
89 | RRIRVRPPRLPRPRPRPWWCPRP | -0.0966
90 | RRIRVRPPRLPRPRPRPWYWPRP | -0.332
91 | RRIRVRPPRLPRPRPRPYCKPRP | -1.15
92 | RRIRVRPPRLPRPRPRPYEWPRP | -0.303
93 | RRIRVRPPRLPRPRPRPYFMPRP | -0.797
94 | RRIRVRPPRLPRPRPRPYGCPRP | -0.00989
95 | RRIRVRPPRLPRPRPRPYGWPRP | -0.0905
96 | RRIRVRPPRLPRPRPRPYHEPRP | -0.159
97 | RRIRVRPPRLPRPRPRPYIFPRP | -0.864
98 | RRIRVRPPRLPRPRPRPYKGPRP | -0.294
99 | RRIRVRPPRLPRPRPRPYKRPRP | -0.0182
100 | RRIRVRPPRLPRPRPRPYLNPRP | -0.16

Row | Sequence | shrunken log2 fold change
101 | RRIRVRPPRLPRPRPRPYLQPRP | -0.946
102 | RRIRVRPPRLPRPRPRPYPVPRP | -0.419
103 | RRIRVRPPRLPRPRPRPYQVPRP | -0.293
104 | RRIRVRPPRLPRPRPRPYRSPRP | -1.55
105 | RRIRVRPPRLPRPRPRPYRYPRP | -0.228
106 | RRIRVRPPRLPRPRPRPYSMPRP | -0.692
107 | RRIRVRPPRLPRPRPRPYTNPRP | -0.656
108 | RRIRVRPPRLPRPRPRPYTWPRP | -0.364
109 | RRIRVRPPRLPRPRPRPYVDPRP | -0.0757
110 | RRIRVRPPRLPRPRPRPYVHPRP | -0.104
111 | RRIRVRPPRLPRPRPRPYVKPRP | -0.354
112 | RRIRVRPPRLPRPRPRPYYLPRP | -0.286
113 | RRIRWRPPRLPRPRPRPAACPRP | 0.0948
114 | RRIRWRPPRLPRPRPRPAAPPRP | 0.613
115 | RRIRWRPPRLPRPRPRPAEFPRP | 0.292
116 | RRIRWRPPRLPRPRPRPAERPRP | 0.0973
117 | RRIRWRPPRLPRPRPRPAFPPRP | 0.446
118 | RRIRWRPPRLPRPRPRPAGDPRP | 0.363
119 | RRIRWRPPRLPRPRPRPAHHPRP | -0.0193
120 | RRIRWRPPRLPRPRPRPAHNPRP | 0.352
121 | RRIRWRPPRLPRPRPRPAIFPRP | 0.327
122 | RRIRWRPPRLPRPRPRPAIRPRP | 0.639
123 | RRIRWRPPRLPRPRPRPAKRPRP | -0.0468
124 | RRIRWRPPRLPRPRPRPAMFPRP | 0.324
125 | RRIRWRPPRLPRPRPRPAMQPRP | 0.298

Row | Sequence | shrunken log2 fold change
126 | RRIRWRPPRLPRPRPRPAPCPRP | 0.322
127 | RRIRWRPPRLPRPRPRPAQNPRP | 0.437
128 | RRIRWRPPRLPRPRPRPAQSPRP | 0.135
129 | RRIRWRPPRLPRPRPRPASCPRP | 0.241
130 | RRIRWRPPRLPRPRPRPASHPRP | 0.187
131 | RRIRWRPPRLPRPRPRPASIPRP | -0.336
132 | RRIRWRPPRLPRPRPRPASPPRP | 0.131
133 | RRIRWRPPRLPRPRPRPATAPRP | 0.983
134 | RRIRWRPPRLPRPRPRPAVFPRP | 0.354
135 | RRIRWRPPRLPRPRPRPAVSPRP | 0.127
136 | RRIRWRPPRLPRPRPRPAYQPRP | 0.106
137 | RRIRWRPPRLPRPRPRPCCDPRP | 0.0279
138 | RRIRWRPPRLPRPRPRPCCGPRP | 0.293
139 | RRIRWRPPRLPRPRPRPCCMPRP | -0.196
140 | RRIRWRPPRLPRPRPRPCCQPRP | 0.0191
141 | RRIRWRPPRLPRPRPRPCCRPRP | 0.174
142 | RRIRWRPPRLPRPRPRPCCYPRP | -0.295
143 | RRIRWRPPRLPRPRPRPCDCPRP | -0.291
144 | RRIRWRPPRLPRPRPRPCDGPRP | 0.0333
145 | RRIRWRPPRLPRPRPRPCERPRP | -0.0115
146 | RRIRWRPPRLPRPRPRPCEWPRP | 0.0102
147 | RRIRWRPPRLPRPRPRPCFTPRP | -0.0397
148 | RRIRWRPPRLPRPRPRPCGRPRP | 0.376
149 | RRIRWRPPRLPRPRPRPCHLPRP | -0.211
150 | RRIRWRPPRLPRPRPRPCIFPRP | -0.683
